{"source": "patent US7708999B2", "about": "“Remedies for arthritis” (Kyowa Hakko Kirin Co., Ltd., priority 2001, dated 2010)", "key": {"[1]": {"system": "rat adjuvant arthritis model", "test": "Rat adjuvant arthritis model", "type": "in vivo", "protocol": "The rat adjuvant arthritis model was performed in the following manner according to the method of Pearson et al. (Pearson CM. et al., Arthritis Rheum., 5, 654-658, 1962) using Lewis rats (female, 8 weeks old, Japan Charles River).\nMycobacterium butyricum (manufactured by Difco) was suspended in a liquid paraffin (manufactured by Wako Pure Chemical Industries, Ltd.) to a final concentration of 6 mg/mL, and sterilized with a autoclave. The resulting solution was intradermally injected into the rat right hind pad in an amount of 100 μL for sensitization. One group consisted of 8 to 10 rats. Anti-FGF-8 neutralizing antibody KM1334 was dissolved in saline to a final concentration of 2 mg/mL. The solution was intraperitoneally administered to a KM1334 administrated group once a day at a dose of 0.5 mL per 100 g of the body weight for each rat on the sensitization day of the rat adjuvant arthritis model and on days 3, 7, 10, 14 and 17 from the sensitization. To saline administrated group, only saline was intraperitoneally administered instead of the anti-FGF-8 neutralizing antibody KM1334 solution. Further, sodium diclofenac, an antiinflammatory agent, was dissolved in a 0.5 w/v % methyl cellulose solution to a final concentration of 0.3 mg/mL, and the solution was orally administered to a sodium diclofenac administrated group as a positive control once a day at a dose of 1 mL per 100 g of the body weight on days 4, 7 to 11 and 14 to 18 from the adjuvant sensitization day. 50 mg of methotrexate® for injection (manufactured by Wyeth Japan) as a metabolic antagonist was dissolved in a 0.5 w/v % methyl cellulose solution to a final concentration of 0.01 mg/mL, and the solution was administered to a methotrexate administrated group in the same manner as in the sodium diclofenac administrated group. Prednisolone (manufactured by Sigma-Aldrich), a steroidal agent, was suspended in a 0.5 w/v % methyl cellulose solution to a final concentration of 0.3 mg/mL, and the suspension was administered to a prednisolone administrated group in the same manner as in the sodium diclofenac administrated group. Further, a 0.5 w/v % methyl cellulose solution alone was orally administered to a solvent administrated group in the same manner. An untreated group was used, and it was not subjected to sensitization with Mycobacterium butyricum and administration of an agent. The volumes of the adjuvant-treated paw and the adjuvant-untreated paw were measured as time goes by using a device for measuring edemas of rat hind paw (TK-101, manufactured by Unicom).\nUsing urine collected for 24 hours at day 20 and day 21 after the sensitization, the amounts of glycosaminoglycan, deoxypyridinoline, hydroxyproline and creatinine in urine were measured. The amount of glycosaminoglycan in urine was measured by the DMMB method described in Example 1. The amount of hydroxyproline in urine was measured by the method of Ikeda et al. (Ikeda Shingo et al., Tokyo Eiken Nenpo, 36 277-282, 1985). That is, 0.8 mL of hydrochloric acid for amino acid analysis (manufactured by Kanto Kagaku) was added to 0.8 mL of urine to hydrolyze at 110° C. for 15 hours. To 0.5 mL of the hydrolyzed sample was added 2 mL of a 1.2 mol/L sodium hydroxide solution for neutralization. 1 mL of isopropanol was added to 0.5 mL of the neutralized sample, and 1 ml of an oxidant solution was added. The mixture was stirred well, and allowed to stand at room temperature for 5 minutes. […]"}, "[2]": {"system": "rat monoiodoacetic acid-induced osteoarthritis model", "test": "Rat monoiodoacetic acid-induced osteoarthritis model", "type": "in vivo", "conditions": "4 mg/mL, 0.5 mL per 100 g intraperitoneally once; 3 days after monoiodoacetic acid", "protocol": "The rat monoiodoacetic acid-induced osteoarthritis model was produced in the following manner by the method of Guingamp et al. (Guingamp C. et al., Arthritis Rheum., 40, 1670-1679, 1997) using Sprague-Dawley rats (male, 7 weeks old, Japan Charles River).\nMonoiodoacetic acid (manufactured by Sigma-Aldrich) prepared with saline to a final concentration of 10 mg/mL was injected into the right knee joint of the rat in an amount of 25 μL. One group consisted of 10 rats. Anti-FGF-8 neutralizing antibody KM1334 was dissolved in saline (manufactured by Otsuka Seiyaku Kojo) to a final concentration of 4 mg/mL, and the antibody solution at a dose of 0.5 mL per 100 g of the body weight was intraperitoneally administered to a KM1334 administrated group once at the injection of monoiodoacetic acid. To saline group, the saline alone was intraperitoneally administered instead of the antibody solution. Further, a sham operated group was arranged, and the saline was injected in the knee joint thereof without the administration of the agent. After 3 days from the injection of monoiodoacetic acid, the joint washing liquid was recovered by the method described in Example 6. The amount of glycosaminoglycan in the joint lavage fluid was measured by the DMMB method described in Example 1."}, "[3]": {"conditions": "adjuvant-untreated paw, score 0 to 4, mean ± standard error"}, "[4]": {"conditions": "urine day 20 to 21, KM1334 intraperitoneally, vs saline group"}}}
{"molecule": "KM1334: anti-FGF-8 neutralizing monoclonal antibody produced by hybridoma KM1334 (FERM BP-5451), mouse IgG1 subclass (antibody, V domains shown) VH: QVQLQQSGAEVARPGASVKLSCKASGYTFTDYYLNWVKQRSGQGLEWIGEIDPGSDSIYYNENLEGRATLTADKSSSTAYMQLNSLTSEDSAVYFCARYGYSRYDVRFVYWGQGTLVTVST VL: DVLMTQTPLSLPVSLGDQASISCRSSQSLVHSNGRTYLEWYLQKPGQSPKVLIYKVSNRISGVPDRFSGSGSGTDFTLKISRVEAEDLGVYFCFQGSHVPYTFGGGTKLEIK", "values": [{"measurement": "Bone destruction score", "setting": "[1]; Table 1, soft X-ray of calcaneus, adjuvant-untreated paw, day 21, maximum 5, mean ± standard error", "result": "3.2 ± 0.5"}, {"measurement": "Bone destruction score (% inhibition)", "setting": "[1]; Table 1, vs saline group, not significant", "result": 27, "unit": "%"}, {"measurement": "Pathological score: Blood cell plasma leak to articular cavity", "setting": "[1]; [3]", "result": "1.6 ± 0.3"}, {"measurement": "Pathological score: Blood leak around joint", "setting": "[1]; [3]", "result": "2.0 ± 0.4"}, {"measurement": "inhibition of the increase in paw volume, adjuvant-untreated paw", "setting": "[1]; day 21, 2 mg/mL, 0.5 mL per 100 g intraperitoneally, vs saline group", "result": 69, "unit": "%"}, {"measurement": "decrease of the increase in amount of hydroxyproline in urine", "setting": "[1]; urine day 20 to 21, KM1334 intraperitoneally, not significant", "result": 48, "unit": "%"}, {"measurement": "inhibition of the increase in amount of deoxypyridinoline in urine (deoxypyridinoline/creatinine ratio)", "setting": "[1]; [4]", "result": 41, "unit": "%"}, {"measurement": "inhibition of the increase in amount of glycosaminoglycan in urine (glycosaminoglycan/creatinine ratio)", "setting": "[1]; [4]", "result": 73, "unit": "%"}, {"measurement": "Blood cell plasma leak to articular cavity (Percent inhibition)", "setting": "[1]; vs saline group", "result": 41, "unit": "%"}, {"measurement": "Blood leak around joint (Percent inhibition)", "setting": "[1]; vs saline group", "result": 41, "unit": "%"}, {"measurement": "inhibition of the increase in concentration of glycosaminoglycan in the joint lavage fluid", "setting": "[2]", "result": 42, "unit": "%"}]}
